Results taken from patent US9307782B2, “Mannanase produced from Cellulosimicrobium sp. strain HY-13” (Korea Research Institute of Bioscience and Biotechnology, priority 2011, dated 2016).
Where two headings read alike, the source gives them in different places. Marks after values point to notes of the source that are not given here.

Experiments:
[1] = Analysis of degradation product (HPLC, LC-MS/MS); format: biochemical
Procedure: (§1) Mannooligomer (M2˜M5, 1 mg/100 μl each) and locust bean gum (1.4 mg/100 μl) were reacted in 50 mM sodium phosphate buffer (pH 6.0) containing 1 μg of the recombinant mannanase at 30° C. for 12 hours, followed by investigation of the hydrolysate. HPLC (high performance liquid chromatography) was performed by using Finnigan Surveyor™ Modular HPLC systems (Thermo Electron Co.) equipped with Asahipak NH2P-50 2D column (5 μm, 2.0×150 mm, Shodex) ran by Xcalibur software (version 1.3 SP2, Thermo Electron Co.). Elution buffer A (0.05% pomalus acid/sterilized water) and elution buffer B (acetonitrile and methanol (7:3) containing 0.05% pomalus acid) were used as moving phases. LC-MS/MS (liquid chromatography/tandem mass spectrometry) was performed by using Finnigan LCQ Advantage MAX ion trap mass spectrometer (Thermo Electron Co.).

[2] = Binding of mannanase to insoluble polymer; details: enzyme 5.0 IU/Ml, on ice two hours, pH 6.0
Procedure: The mannanase of the present invention contains two family 10 CBMs at C-terminal, which plays an important role in enzyme-substrate interaction. As the mannanase was expected to bind to various carbohydrate polymers, hydrophobic materials having microstructures including polysaccharide, poly(3HB) granules, and lignin were used as substrates to investigate enzyme-substrate binding activity of the mannanase.
Before analyzing the binding activity, insoluble substrates were washed with 50 mM sodium phosphate buffer (pH 6.0) 5 times, followed by measuring the binding capacity of the enzyme to the hydrophobic materials. Particularly, the enzyme diluted at the concentration of 5.0 IU/Ml was put on ice for two hours with the equal volume of a substrate polymer. The mixture was stirred every 5 minute. The mixture was centrifuged at 12,000×g to obtain supernatant. Then, the activity of β-1,4-mannanase thereof was measured.

[3] = Specific activity of mannanase (substrate specificity); format: biochemical; details: substrate Birchwood xylan
Source text: The activity of β-1,4-mannanase was investigated by measuring the reduced amount of glucose isolated from locust bean gum using 3,5-dinitrosalicylic acid (DNS). At this time, D-mannose was used as a standard material. […] The activity of the recombinated mannanase (1 IU) to the mannan substrate was defined as the amount of the protein necessary for the secretion of 1 μmol reducing sugar under the standard analysis condition. […] The enzyme activity of the recombinated mannanase to the chromogenic substrate was measured under the same conditions as set for the analysis of β-1,4-mannanase activity. The activity of the recombinated mannanase (1 IU) to the PNP-sugar derivative was defined as the amount of the protein necessary for the production of 1 μmol PNP under the standard analysis condition.

[4] = format: physicochemical
Procedure: To determine the optimum reaction temperature of the mannanase, mannanase activity was measured at different temperatures of 37, 40, 45, 50, 55, 60, 65, and 70° C. To measure thermo-stability, the mannanase was heat-treated at the said temperatures for 15, 30, and 60 minutes and then the remained activity was measured. To determine the optimum reaction pH, the mannanase was treated respectively with 50 mM of sodium citrate buffer (pH 4.0˜5.5), phosphate buffer (pH 5.5˜7.5), Tris-HCl buffer (pH 7.5˜9.0), and glycine-NaOH buffer (pH 9.0˜10.0) in pH range of 4.0˜10.0 at 55° C. for 15 minutes, followed by measurement of enzyme reaction.

[5] = Specific activity of mannanase (substrate specificity); format: biochemical
Procedure: (§2) The activity of β-1,4-mannanase was investigated by measuring the reduced amount of glucose isolated from locust bean gum using 3,5-dinitrosalicylic acid (DNS). At this time, D-mannose was used as a standard material. 0.5 Ml of a standard mixture composed of 0.5% locust bean gum was mixed with 0.05 Ml of an enzyme aqueous solution, followed by inducing biodegradation reaction in 50 mM sodium phosphate buffer (pH 6.0) at 50° C. for 15 minutes. The activity of the recombinated mannanase (1 IU) to the mannan substrate was defined as the amount of the protein necessary for the secretion of 1 μmol reducing sugar under the standard analysis condition. Chromogenic PNP-sugar derivative was used to measure another degrading activity of the said recombinated enzyme. The enzyme activity of the recombinated mannanase to the chromogenic substrate was measured under the same conditions as set for the analysis of β-1,4-mannanase activity. The activity of the recombinated mannanase (1 IU) to the PNP-sugar derivative was defined as the amount of the protein necessary for the production of 1 μmol PNP under the standard analysis condition.

[6] = toward locust bean gum; comparison enzymes of other strains; cited from earlier work
[7] = Analysis of degradation product (HPLC, LC-MS/MS); format: biochemical; details: substrate Ivory nut mannan; LC area %
Procedure: as §1, with “Mannooligomer (M2˜M5, 1 mg/100 μl each) and locust bean gum (1.4 mg/100 μl) were reacted in 50 mM sodium phosphate buffer (pH 6.0) containing 1 μg of the recombinant mannanase at 30° C. for 12 hours, followed by investigation of the hydrolysate.” left out

[8] = Specific activity of mannanase (DNS reducing sugar assay); format: biochemical; details: for Specific activity: pH 6.0, 50° C., 15 minutes
Procedure: To compare the mannanase activity to different matrixes, locust bean gum, ivory nut mannan and guar gum were used as matrixes and the activity of the purified mannanase to those matrixes were investigated.
as §2

[9] = substrate Locust bean gum, 1 μg recombinant mannanase, pH 6.0, 30° C., 12 hours, LC area %

binding to insoluble polymer ([2]; Avicel): strongly conjugated
binding to insoluble polymer ([2]; chitin): strongly conjugated
binding to insoluble polymer ([2]; chitosan): strongly conjugated
binding to insoluble polymer ([2]; curdlan): not conjugated
binding to insoluble polymer ([2]; insoluble ivory nut mannan): strongly conjugated
binding to insoluble polymer ([2]; insoluble oat spelt xylan): not conjugated
binding to insoluble polymer ([2]; lignin): not conjugated
binding to insoluble polymer ([2]; poly(3HB) granules): not conjugated
B1: Mannanase: Wild type β-1,4-mannanase of Bacillus subtilis WY34 (protein)
chain: MRRLFAIVLGAVLALLAVPALAQGASVASDGFSVQDGRIYDANGNRFVPVGVNHAHAWYPSQTQSFADIRAAGANTVRVVLSGGRYGTSSAADVSAVVERCKQNQLVCILENHDTTGYGEDGSARSLASAAQYWTSIASVLRGQERYVMINIGNEPFGNSGFQSWTTDTIAAIRTLRAAGLDHTLVVDAPNWGQDWSFTMRDNAPTVAAADGNVVFSVHMYGVFDTGAEVRAYLDSFTSRGLPIMVGEFGDNHSDGNPDEATIMSYTRSQGIGMLGWSWSGNGGGVEYLDMVNGFSASSLTPWGQRFVHGADGLRARNAPAASVYGGDGGDGDGGAGTAPNGYPYCASASSDPDGDGWGWESSASCVVRGSSADTGSGGGSGSGSTAPNGYPYCASASSDPDGDGWGWESSASCVVRGSSADR
modifications: cellulosimicrobium
notes: Wild type β-1,4-mannanase of Bacillus subtilis WY34
Composition (%) of products formed by hydrolysis reaction: M1 [1, 9]: 1.1%
Composition (%) of products formed by hydrolysis reaction: M2 [1, 9]: 6.4%
Composition (%) of products formed by hydrolysis reaction: M3 [1, 9]: 1.5%
Composition (%) of products formed by hydrolysis reaction: M4 [1, 9]: 7.4%
Composition (%) of products formed by hydrolysis reaction: M5 [1, 9]: 44.2%
degradation of substrate ([1]; substrate M2 (printed N2)): not degraded
hydrolysis products: mannooligomer (at least M6) ([1]; substrate locust bean gum, sum of M6 and larger): 39.4%
degradation of carbohydrate [3]: not degraded
Half life of the enzyme [4]: 15 min
Thermolability ([4]; exposed on the temperature of 55° C.): rapidly increased
degradation of carbohydrate ([5]; substrate carboxymethylcellulose): not degraded
degradation of carbohydrate ([5]; substrate pectin): not degraded
degradation of carbohydrate ([5]; substrate soluble starch): not degraded
Specific activity [6]: 8,302^d IU/mg
Composition (%) of products formed by hydrolysis reaction: M4 [7]: 25.2%
specific activity to ivory nut mannan relative to guar gum ([8]; ratio ivory nut mannan / guar gum): 15.2 fold
specific activity to ivory nut mannan relative to locust bean gum ([8]; ratio ivory nut mannan / locust bean gum): 1.7 fold
Specific activity ([8]; toward guar gum): 967 IU/mg
Specific activity ([8]; toward insoluble ivory nut mannan): 14,711 IU/mg
Specific activity ([8]; toward locust bean gum): 8,498 IU/mg
